Consider 15 molecules from patent publication US20230235012A1 (ALPINE IMMUNE SCIENCES, published 2023).

First the molecules themselves.
B1: variant ICOSL IgV-Fc fusion N52A/N57H/Q100S (Fc fusion)
chain: DTQEKEVRAMVGSDVELSCACPEGSRFDLNDVYVYWQTSESKTVVTYHIPQASSLEHVDSRYRNRALMSPAGMLRGDFSLRLFNVTPQDEQKFHCLVLSSSLGFQEVLSVEVTLHVAANFSVGSGGGGSEPKSSDKTHTCPPCPAPEAEGAPSVFLFPPKPKDTLMISRTPEVTCVVVDVSHEDPEVKFNWYVDGVEVHNAKTKPREEQYNSTYRVVSVLTVLHQDWLNGKEYKCKVSNKALPAPIEKTISKAKGQPREPQVYTLPPSREEMTKNQVSLTCLVKGFYPSDIAVEWESNGQPENNYKTTPPVLDSDGSFFLYSKLTVDKSRWQQGNVFSCSVMHEALHNHYTQKSLSLSPG
B2: variant ICOSL IgV-Fc fusion N52R/N57F/Q100P (Fc fusion)
chain: B1 chain with A52R, H57F, S100P
B3: variant ICOSL IgV-Fc fusion N52G/N57P/Q100D (Fc fusion)
chain: B1 chain with A52G, H57P, S100D
B4: variant ICOSL IgV-Fc fusion N52S/N57L/Q100G (Fc fusion)
chain: B1 chain with A52S, H57L, S100G
B5: variant ICOSL IgV-Fc fusion N52D/N57A/Q100A (Fc fusion)
chain: B1 chain with A52D, H57A, S100A
B6: variant ICOSL IgV-Fc fusion N52R/N57W (Fc fusion)
chain: B1 chain with A52R, H57W, S100Q
B7: variant ICOSL IgV-Fc fusion N52R/N57F/Q100N (Fc fusion)
chain: B1 chain with A52R, H57F, S100N
B8: variant ICOSL IgV-Fc fusion N52S/N57A/Q100A (Fc fusion)
chain: B1 chain with A52S, H57A, S100A
B9: variant ICOSL IgV-Fc fusion N52T/N57Y/Q100A (Fc fusion)
chain: B1 chain with A52T, H57Y, S100A
B10: variant ICOSL IgV-Fc fusion N52R/N57F/Q100R (Fc fusion)
chain: B1 chain with A52R, H57F, S100R
B11: variant ICOSL IgV-Fc fusion N52P/N57P (Fc fusion)
chain: B1 chain with A52P, H57P, S100Q
B12: variant ICOSL IgV-Fc fusion N52V/N57L/Q100A (Fc fusion)
chain: B1 chain with A52V, H57L, S100A
B13: variant ICOSL IgV-Fc fusion N52T/N57K/Q100P (Fc fusion)
chain: B1 chain with A52T, H57K, S100P
B14: variant ICOSL IgV-Fc fusion N52D/Q100S (Fc fusion)
chain: B1 chain with A52D, H57N
B15: variant ICOSL IgV-Fc fusion N52R/N57Y/Q100P (Fc fusion)
chain: B1 chain with A52R, H57Y, S100P

Numbering of substitutions follows the chain as printed. Names and notes keep the numbering of the source.

T2 sequence (P16410 36-223): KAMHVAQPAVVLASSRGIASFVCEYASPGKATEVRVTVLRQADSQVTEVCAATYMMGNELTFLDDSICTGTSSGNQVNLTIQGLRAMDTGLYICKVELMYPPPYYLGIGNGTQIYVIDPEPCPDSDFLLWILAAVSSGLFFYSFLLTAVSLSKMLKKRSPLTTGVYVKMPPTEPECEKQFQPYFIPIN

The target of the first assay is T1, human CD28, full-length, expressed on transfected Expi293 cells (human, UniProt P10747 19-220).
T1 construct: whole, on cells
Kind of assay: flow cytometry, 100 nM, Expi293 cells with human CD28. (In general: Flow cytometry measures light scatter and fluorescence of single cells or particles in a stream.)
For the molecule B1, the MFI came to 159000 MFI.
In turn, B2 showed an MFI of 154000 MFI.
Molecule B3 returned an MFI of 5720 MFI.
The same measure, in the same setting: then B4, with 71900 MFI; and B5, with 138000 MFI.
The same measure, in the same setting: the figure for B6 is 137000 MFI.
B7 showed an MFI of 161000 MFI.
As for B8, the MFI is 98200 MFI.
On the same count and under the same terms, then B9, with 161000 MFI; and B10, with 185000 MFI.
Still for that read-out and setting: then B11, with 21000 MFI; and B12, with 132000 MFI.
Same read-out and setting: the figure for B13 is 88700 MFI; for B14 it is 95700 MFI.
B15: the MFI worked out at 133000 MFI.

A further assay addresses T2, human CTLA-4, full-length, expressed on transfected Expi293 cells (human, UniProt P16410 36-223).
T2 construct: whole, on cells
Kind of assay: flow cytometry, 100 nM, Expi293 cells with human CTLA-4.
B1 came in with an MFI of 321000 MFI.
On the same count and under the same terms, the figure for B2 is 504000 MFI.
Still for that read-out and setting: the figure for B3 is 10200 MFI; for B4 it is 79400 MFI.
Still for that read-out and setting: the figure for B5 is 340000 MFI; for B6 it is 318000 MFI.
With B7, the MFI stood at 233000 MFI.
On the same count and under the same terms, the figure for B8 is 233000 MFI; for B9 it is 341000 MFI; for B10 it is 464000 MFI.
The same measure, in the same setting: the figure for B12 is 252000 MFI; for B13 it is 78300 MFI.
Same read-out and setting: then B14, with 333000 MFI; and B15, with 502000 MFI.
